This is an account of results in patent US20240209078A1.

Test [1] deals with human MSLN (mesothelin) (human) (UniProt Q13421). As to the kind of experiment: cell-based or functional assay.
Test [2] deals with human MSLN (human) (UniProt Q13421). Nature of the test: cell-based affinity, flow cytometry on target-transfected CHO cells, nonlinear regression (one site - specific binding), mean of three measurements. Background: In flow cytometry, cells or beads pass a laser one at a time.
The target is the same in test [3]. As to the kind of experiment: cell-based or functional assay.

The Kd is a measure of binding affinity in units of concentration. Read a low Kd as a tighter complex.

B1: CH3 15-E11 VAG CC×I2L×G4×scFc×MS 15-B12 CC×I2L clipopt ID (SEQ ID NO 434) (bispecific antibody)
chain: QVQLVQSGAEVKKPGASVKVSCKASGYTFTNYWMNWVRQAPGQCLEWMGNIAYGVAGTNYNQKFQGRVTMTVDTSSSTAYMELSRLRSDDTAVYYCATRYFYVMDYWGQGTLVTVSSGGGGQGGGGQGGGGQDIQMTQSPSSLSASVGDRVTITCRASQDISNYLNWYQQKPGKVPKLLIYYTSRLHSGVPSRFSGSGSGTDFTLTISSLQPEDVATYYCVQYAQFPLTFGCGTKVEIKSGGGGQEVQLVESGGGLVQPGGSLKLSCAASGFTFNKYAMNWVRQAPGKGMEWVARIRSKYNNYATYYADAVKDRFTISRDDSKNTLYLQMNNLKTEDTAVYYCVRAGNFGSSYISYFAYWGQGTLVTVSSGGGGQGGGGQGGGGQQTVVTQEPSLTVSPGGTVTITCGSSTGAVTSGNYPNWIQKKPGQAPRGLIGGTKFLAPGTPARFSGSLEGGKAALTLSGVQPEDEAEYYCVLYYSNRWVFGSGTKLTVLGGGGCPPCPAPELLGGPSVFLFPPKPKDTLMISRTPEVTCVVVDVSHEEPEVKFNWYVDGVEVHNAKTKPCEEQYGSTYRCVSVLTVLHQDWLNGKEYKCKVSNKALPAPIEKTISKAKGQPREPQVYTLPPSREEMTKNQVSLTCLVKGFYPSDIAVEWESNGQPENNYKTTPPVLDSDGSFFLYSKLTVDKSRWQQGNVFSCSVMHEALHNHYTQKSLSLSPGKGGGGQGGGGQGGGGQGGGGQGGGGQGGGGQCPPCPAPELLGGPSVFLFPPKPKDTLMISRTPEVTCVVVDVSHEEPEVKFNWYVDGVEVHNAKTKPCEEQYGSTYRCVSVLTVLHQDWLNGKEYKCKVSNKALPAPIEKTISKAKGQPREPQVYTLPPSREEMTKNQVSLTCLVKGFYPSDIAVEWESNGQPENNYKTTPPVLDSDGSFFLYSKLTVDKSRWQQGNVFSCSVMHEALHNHYTQKSLSLSPGKGGGGQVQLQESGPGLVKPSETLSLTCTVSGGSISSSSYFWGWIRQPPGKCLEWIGNIYYSGSSNYNPSLKSRVTISVDTSKNQFSLKLSSVTAADTAVYYCARLPRGDRDAFDIWGQGTMVTVSSGGGGQGGGGQGGGGQDIVMTQSPSSLSASVGDRVTITCRASQGISNYLAWYQQKPGKVPKLLIYAASTLQSGVPSRFSGSGSGTDFTLTISSLQPEDFATYYCQQSYSTPFTFGCGTKVEIKSGGGGQEVQLVESGGGLVQPGGSLKLSCAASGFTFNKYAMNWVRQAPGKGMEWVARIRSKYNNYATYYADAVKDRFTISRDDSKNTLYLQMNNLKTEDTAVYYCVRAGNFGSSYISYFAYWGQGTLVTVSSGGGGQGGGGQGGGGQQTVVTQEPSLTVSPGGTVTITCGSSTGAVTSGNYPNWIQKKPGQAPRGLIGGTKFLAPGTPARFSGSLEGGKAALTLSGVQPEDEAEYYCVLYYSNRWVFGSGTKLTVL
For B1, in test [1], the cytotoxicity EC50, GSU KO CDH3 cells amounted to 75.2 pM and the cytotoxicity EC50, HCT 116 KO CDH3 cells worked out at 5.9 pM.

B2: CH3 15-E11_1_VAG_CC × I2L × G4 × scFc × G4 × MS 15-B12 CC × I2L clipopt_DI (bispecific antibody)
chain: QVQLVQSGAEVKKPGASVKVSCKASGYTFTNYWMNWVRQAPGQCLEWMGNIAYGVAGTNYNQKFQGRVTMTVDTSSSTAYMELSRLRSDDTAVYYCATRYFYVMDYWGQGTLVTVSSGGGGQGGGGQGGGGQDIQMTQSPSSLSASVGDRVTITCRASQDISNYLNWYQQKPGKVPKLLIYYTSRLHSGVPSRFSGSGSGTDFTLTISSLQPEDVATYYCVQYAQFPLTFGCGTKVEIKSGGGGQEVQLVESGGGLVQPGGSLKLSCAASGFTFNKYAMNWVRQAPGKGMEWVARIRSKYNNYATYYADAVKDRFTISRDDSKNTLYLQMNNLKTEDTAVYYCVRAGNFGSSYISYFAYWGQGTLVTVSSGGGGQGGGGQGGGGQQTVVTQEPSLTVSPGGTVTITCGSSTGAVTSGNYPNWIQKKPGQAPRGLIGGTKFLAPGTPARFSGSLEGGKAALTLSGVQPEDEAEYYCVLYYSNRWVFGSGTKLTVLGGGGCPPCPAPELLGGPSVFLFPPKPKDTLMISRTPEVTCVVVDVSHEEPEVKFNWYVDGVEVHNAKTKPCEEQYGSTYRCVSVLTVLHQDWLNGKEYKCKVSNKALPAPIEKTISKAKGQPREPQVYTLPPSREEMTKNQVSLTCLVKGFYPSDIAVEWESNGQPENNYKTTPPVLDSDGSFFLYSKLTVDKSRWQQGNVFSCSVMHEALHNHYTQKSLSLSPGKGGGGQGGGGQGGGGQGGGGQGGGGQGGGGQCPPCPAPELLGGPSVFLFPPKPKDTLMISRTPEVTCVVVDVSHEEPEVKFNWYVDGVEVHNAKTKPCEEQYGSTYRCVSVLTVLHQDWLNGKEYKCKVSNKALPAPIEKTISKAKGQPREPQVYTLPPSREEMTKNQVSLTCLVKGFYPSDIAVEWESNGQPENNYKTTPPVLDSDGSFFLYSKLTVDKSRWQQGNVFSCSVMHEALHNHYTQKSLSLSPGKGGGGQVQLQESGPGLVKPSETLSLTCTVSGGSISSSSYFWGWIRQPPGKCLEWIGNIYYSGSSNYNPSLKSRVTISVDTSKNQFSLKLSSVTAADTAVYYCARLPRGDRDAFDIWGQGTMVTVSSGGGGQGGGGQGGGGQDIVMTQSPSSLSASVGDRVTITCRASQGISNYLAWYQQKPGKVPKLLIYAASTLQSGVPSRFSGSGSGTDFTLTISSLQPEDFATYYCQQSYSTPFTFGCGTKVEIKSGGGGQEVQLVESGGGLVQPGGSLKLSCAASGFTFNKYAMNWVRQAPGKGMEWVARIRSKYNNYATYYADAVKDRFTISRDDSKNTLYLQMNNLKTEDTAVYYCVRAGNFGSSYISYFAYWGQGTLVTVSSGGGGQGGGGQGGGGQQTVVTQEPSLTVSPGGTVTITCGSSTGAVTSGNYPNWIQKKPGQAPRGLIGGTKFLAPGTPARFSGSLEGGKAALTLSGVQPEDEAEYYCVLYYSNRWVFGSGTKLTVL
As for B2, the Kd in test [2] was found to be 40000 pM.

B3: CH3 15-E11 CC × I2L × G4 × scFc × G4 × MS 15-B12 CC × I2L_GQ (bispecific antibody)
chain: QVQLVQSGAEVKKPGASVKVSCKASGYTFTNYWMNWVRQAPGQCLEWMGNIAYGVKGTNYNQKFQGRVTMTVDTSSSTAYMELSRLRSDDTAVYYCATRYFYVMDYWGQGTLVTVSSGGGGQGGGGQGGGGQDIQMTQSPSSLSASVGDRVTITCRASQDISNYLNWYQQKPGKVPKLLIYYTSRLHSGVPSRFSGSGSGTDFTLTISSLQPEDVATYYCVQYAQFPLTFGCGTKVEIKSGGGGQEVQLVESGGGLVQPGGSLKLSCAASGFTFNKYAMNWVRQAPGKGMEWVARIRSKYNNYATYYADAVKDRFTISRDDSKNTLYLQMNNLKTEDTAVYYCVRAGNFGSSYISYFAYWGQGTLVTVSSGGGGQGGGGQGGGGQQTVVTQEPSLTVSPGGTVTITCGSSTGAVTSGNYPNWIQKKPGQAPRGLIGGTKFLAPGTPARFSGSLEGGKAALTLSGVQPEDEAEYYCVLYYSNRWVFGSGTKLTVLGGGGCPPCPAPELLGGPSVFLFPPKPKDTLMISRTPEVTCVVVDVSHEEPEVKFNWYVDGVEVHNAKTKPCEEQYGSTYRCVSVLTVLHQDWLNGKEYKCKVSNKALPAPIEKTISKAKGQPREPQVYTLPPSREEMTKNQVSLTCLVKGFYPSDIAVEWESNGQPENNYKTTPPVLDSDGSFFLYSKLTVDKSRWQQGNVFSCSVMHEALHNHYTQKSLSLSPGKGGGGQGGGGQGGGGQGGGGQGGGGQGGGGQCPPCPAPELLGGPSVFLFPPKPKDTLMISRTPEVTCVVVDVSHEEPEVKFNWYVDGVEVHNAKTKPCEEQYGSTYRCVSVLTVLHQDWLNGKEYKCKVSNKALPAPIEKTISKAKGQPREPQVYTLPPSREEMTKNQVSLTCLVKGFYPSDIAVEWESNGQPENNYKTTPPVLDSDGSFFLYSKLTVDKSRWQQGNVFSCSVMHEALHNHYTQKSLSLSPGKGGGGQVQLQESGPGLVKPSETLSLTCTVSGGSISSSSYFWGWIRQPPGKCLEWIGNIYYSGSSNYNPSLKSRVTISVDTSKNQFSLKLSSVTAADTAVYYCARLPRGDRDAFDIWGQGTMVTVSSGGGGQGGGGQGGGGQDIVMTQSPSSLSASVGDRVTITCRASQGISNYLAWYQQKPGKVPKLLIYAASTLQSGVPSRFSGSGSGTDFTLTISSLQPEDFATYYCQQSYSTPFTFGCGTKVEIKSGGGGQEVQLVESGGGLVQPGGSLKLSCAASGFTFNKYAMNWVRQAPGKGMEWVARIRSKYNNYATYYADAVKDRFTISRDDSKNTLYLQMNNLKTEDTAVYYCVRAGNFGSSYISYFAYWGQGTLVTVSSGGGGQGGGGQGGGGQQTVVTQEPSLTVSPGGTVTITCGSSTGAVTSGNYPNWIQKKPGQAPRGLIGGTKFLAPGTPARFSGSLEGGKAALTLSGVQPEDEAEYYCVLYYSNRWVFGSGTKLTVL
In test [3], B3 yielded an EC50 (cytotoxicity) on double positive cells; column head printed 'EC50 CHO hu CDH3 (+) & MSLN (+)'; value is that of HCT 116 wt in Table 46 of 0.071 pM; an EC50 (cytotoxicity); column head printed 'EC50 CHO hu CDH3 (+)', table title HCT 116; value is that of HCT 116 KO CDH3 in Table 46 of 51.8 pM; an EC50 on HCT 116 KO CDH3 (cytotoxicity; cells CDH3-, MSLN+) of 51.8 pM; an EC50 on HCT 116 wt (cytotoxicity; cells CDH3+, MSLN+) of 0.07 pM. Besides, the fold gap of column 6 (HCT 116 KO CDH3 by Table 46) against double positive cells in test [3] turned out to be 727 fold. This molecule gave a Kd in test [2] of 33800 pM.
